The target of series [1] is T1, ToPif1 S69C/S405C (Thermus oshimai, UniProt K7RJ88 64-507, S69C;S405C).
T1 sequence: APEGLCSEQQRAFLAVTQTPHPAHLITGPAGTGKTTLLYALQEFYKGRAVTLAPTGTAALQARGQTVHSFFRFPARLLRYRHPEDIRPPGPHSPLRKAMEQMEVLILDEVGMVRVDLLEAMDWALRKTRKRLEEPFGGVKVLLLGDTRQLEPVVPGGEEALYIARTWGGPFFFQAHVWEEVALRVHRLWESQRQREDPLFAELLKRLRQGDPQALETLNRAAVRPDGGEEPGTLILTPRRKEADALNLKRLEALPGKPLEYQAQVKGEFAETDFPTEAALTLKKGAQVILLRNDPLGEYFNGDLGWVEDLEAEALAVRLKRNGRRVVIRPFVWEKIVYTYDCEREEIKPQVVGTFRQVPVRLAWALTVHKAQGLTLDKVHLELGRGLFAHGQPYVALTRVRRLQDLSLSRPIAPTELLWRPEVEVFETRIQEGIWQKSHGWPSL
Kind of series: smFRET.

The target of series [2] is T1, ToPif1 S69C/S405C. Kind of series: smFRET. The source holds these as a separate data set.
The target of series [3] is T2, ToPif1 (Thermus oshimai, UniProt K7RJ88 64-507).
T2 sequence: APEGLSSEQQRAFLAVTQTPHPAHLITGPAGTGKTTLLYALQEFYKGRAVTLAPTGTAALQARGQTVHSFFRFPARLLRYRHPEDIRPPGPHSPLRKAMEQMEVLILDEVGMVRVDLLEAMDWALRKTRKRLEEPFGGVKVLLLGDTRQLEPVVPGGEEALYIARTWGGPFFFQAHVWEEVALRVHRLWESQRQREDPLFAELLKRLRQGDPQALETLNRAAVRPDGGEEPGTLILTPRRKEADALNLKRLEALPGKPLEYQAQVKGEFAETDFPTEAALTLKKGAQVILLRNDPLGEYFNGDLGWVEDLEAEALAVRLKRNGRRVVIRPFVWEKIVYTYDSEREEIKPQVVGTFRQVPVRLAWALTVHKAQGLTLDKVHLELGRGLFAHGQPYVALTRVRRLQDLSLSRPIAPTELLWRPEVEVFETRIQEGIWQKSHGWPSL
Kind of series: DLS.

Series [4] addresses T2, ToPif1. As to the kind of experiment: crystal structure.

Read-outs that look alike come from different tables or passages of the source.

B1: dT8 (ssDNA)
DNA: TTTTTTTT
Take B1: the binding result in the series with ToPif1 S69C/S405C [1] was “binds”.

B2: S8D38 (dsDNA)
DNA 1: TTTTTTTTTCCGGATCACCATGGCGGACTCTCTGCTCTCGTGCTCC
DNA 2: GGAGCACGAGAGCAGAGAGTCCGCCATGGTGATCCGGA
Take B2: the binding result with ToPif1 S69C/S405C [2] is listed as “binds”.

B3: dT15 (ssDNA)
DNA: TTTTTTTTTTTTTTT
Regarding B3, in the series with ToPif1 [3], the binding result is reported as “binds”.

B4: S7D11 (dsDNA)
DNA 1: TTTTTTTCGCAGTGCTCG
DNA 2: CGAGCACTGCG
As for B4, in the series with ToPif1 [4], the binding result is reported as “binds”.

These data come from paper PMC8053095.
